Experimental data reported in article doi:10.1101/144360 (bioRxiv, 2017).
AGT = not defined here

Molecular target: T1, 6xHIS-SH3_(Boi1) (S. cerevisiae, UniProt P38041 13-77)
T1 sequence: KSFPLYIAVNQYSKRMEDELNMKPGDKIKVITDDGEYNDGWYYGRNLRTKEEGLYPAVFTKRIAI
Test: SPR

Binder: 6xHis-SVSSKGPSNSLNLSTADLSLN-{AGT} (reading uncertain; also: AGT tag covalently labeled with SNAP-Biotin) [6xHis-Exo84_(121-141)-AGT]
- Kd: ~1000 nM
